Holding throughout (assay): SPR
Test [1] deals with T1, RBD (residues 334–527 of the SARS-CoV-2 spike glycoprotein) (SARS-CoV-2, UniProt P0DTC2 334-527).
Test [2] addresses T1, RBD (residues 334–527 of the SARS-CoV-2 …). This is another data set of the same source.
Test [3] shares this target. The source holds these as a separate data set.

Data on eight molecules can be found in paper PMC11764276 (2024).

Changes are numbered by the printed parent chain. Where two headings read alike, the source gives them in different places.

B1: 2196_CDRL3_RP (antibody, V domains shown)
VH: QMQLVQSGPEVKKPGTSVKVSCKASGFTFMSSAVQWVRQARGQRLEWIGWIVIGSGNTNYAQKFQERVTITRDMSTSTAYMELSSLRSEDTAVYYCAAPYCSSISCNDGFDIWGQGTMVTVSS
VL: not shown
In the case of B1, the Kd in test [1] was 204 nM; in test [3] it was 203 nM. This molecule also displayed a dissociation rate constant (koff) in test [2] of 0.12 s⁻¹.

B2: DMAb-2196_CDRL3_P (antibody, V domains shown)
VH: B1 VH
VL: not shown
In turn, B2 gave an off-rate (koff) in test [2] of 0.1 s⁻¹. In addition, the dissociation constant Kd in test [3] was found to be 88.5 nM.

B3: 2196_CDRL1_des1 (antibody, V domains shown)
VH: B1 VH
VL: EIVLTQSPGTLSLSPGERATLSCRASQTISNNFVAWYQQKPGQAPRLLIYGASSRATGIPDRFSGSGSGTDFTLTISRLEPEDFAVYYCQHYGSSRGWTFGQGTKVEIK
With B3, the koff in test [2] came to 0.0823 s⁻¹. The same molecule yielded a Kd in test [3] of 47.6 nM.

B4: 2196 WT (recombinant mAb COV2-2196) (antibody, V domains shown)
VH: B1 VH
VL: not shown
In test [2], B4 came in with a koff of 0.0133 s⁻¹.

B5: 2196 HC + 2072 LC (antibody, V domains shown)
VH: B1 VH
VL: not shown
B5 returned a koff in test [2] of 0.0309 s⁻¹.

B6: 2196_CDRL3_Q (antibody, V domains shown)
VH: B1 VH
VL: not shown
With B6, the koff in test [2] turned out to be 0.0171 s⁻¹.

B7: 2196_CDRL3_GP (antibody, V domains shown)
VH: B1 VH
VL: not shown
On to B7, for which, in test [2], the koff is 0.0133 s⁻¹.

B8: 2196_CDRL1_des2 (antibody, V domains shown)
VH: B1 VH
VL: B3 VL with N32S, F33Y
In turn, B8 had a koff in test [2] of 0.0216 s⁻¹.

The Kd is a measure of binding affinity in units of concentration. The low end stands for tighter binding, the high end for weaker binding. In general, koff refers to a measure of how fast the partners let go of each other. A lower koff goes with a long-lived complex.
